These results are taken from patent US20110010786A1 (published 2011).

The target of this test is T1, human factor VIII (human, UniProt P00451 20-2351).
T1 construct: also called FVIII
Briefly: Surface Plasmon Resonance.

T1 sequence (P00451 20-2351 limits assumed): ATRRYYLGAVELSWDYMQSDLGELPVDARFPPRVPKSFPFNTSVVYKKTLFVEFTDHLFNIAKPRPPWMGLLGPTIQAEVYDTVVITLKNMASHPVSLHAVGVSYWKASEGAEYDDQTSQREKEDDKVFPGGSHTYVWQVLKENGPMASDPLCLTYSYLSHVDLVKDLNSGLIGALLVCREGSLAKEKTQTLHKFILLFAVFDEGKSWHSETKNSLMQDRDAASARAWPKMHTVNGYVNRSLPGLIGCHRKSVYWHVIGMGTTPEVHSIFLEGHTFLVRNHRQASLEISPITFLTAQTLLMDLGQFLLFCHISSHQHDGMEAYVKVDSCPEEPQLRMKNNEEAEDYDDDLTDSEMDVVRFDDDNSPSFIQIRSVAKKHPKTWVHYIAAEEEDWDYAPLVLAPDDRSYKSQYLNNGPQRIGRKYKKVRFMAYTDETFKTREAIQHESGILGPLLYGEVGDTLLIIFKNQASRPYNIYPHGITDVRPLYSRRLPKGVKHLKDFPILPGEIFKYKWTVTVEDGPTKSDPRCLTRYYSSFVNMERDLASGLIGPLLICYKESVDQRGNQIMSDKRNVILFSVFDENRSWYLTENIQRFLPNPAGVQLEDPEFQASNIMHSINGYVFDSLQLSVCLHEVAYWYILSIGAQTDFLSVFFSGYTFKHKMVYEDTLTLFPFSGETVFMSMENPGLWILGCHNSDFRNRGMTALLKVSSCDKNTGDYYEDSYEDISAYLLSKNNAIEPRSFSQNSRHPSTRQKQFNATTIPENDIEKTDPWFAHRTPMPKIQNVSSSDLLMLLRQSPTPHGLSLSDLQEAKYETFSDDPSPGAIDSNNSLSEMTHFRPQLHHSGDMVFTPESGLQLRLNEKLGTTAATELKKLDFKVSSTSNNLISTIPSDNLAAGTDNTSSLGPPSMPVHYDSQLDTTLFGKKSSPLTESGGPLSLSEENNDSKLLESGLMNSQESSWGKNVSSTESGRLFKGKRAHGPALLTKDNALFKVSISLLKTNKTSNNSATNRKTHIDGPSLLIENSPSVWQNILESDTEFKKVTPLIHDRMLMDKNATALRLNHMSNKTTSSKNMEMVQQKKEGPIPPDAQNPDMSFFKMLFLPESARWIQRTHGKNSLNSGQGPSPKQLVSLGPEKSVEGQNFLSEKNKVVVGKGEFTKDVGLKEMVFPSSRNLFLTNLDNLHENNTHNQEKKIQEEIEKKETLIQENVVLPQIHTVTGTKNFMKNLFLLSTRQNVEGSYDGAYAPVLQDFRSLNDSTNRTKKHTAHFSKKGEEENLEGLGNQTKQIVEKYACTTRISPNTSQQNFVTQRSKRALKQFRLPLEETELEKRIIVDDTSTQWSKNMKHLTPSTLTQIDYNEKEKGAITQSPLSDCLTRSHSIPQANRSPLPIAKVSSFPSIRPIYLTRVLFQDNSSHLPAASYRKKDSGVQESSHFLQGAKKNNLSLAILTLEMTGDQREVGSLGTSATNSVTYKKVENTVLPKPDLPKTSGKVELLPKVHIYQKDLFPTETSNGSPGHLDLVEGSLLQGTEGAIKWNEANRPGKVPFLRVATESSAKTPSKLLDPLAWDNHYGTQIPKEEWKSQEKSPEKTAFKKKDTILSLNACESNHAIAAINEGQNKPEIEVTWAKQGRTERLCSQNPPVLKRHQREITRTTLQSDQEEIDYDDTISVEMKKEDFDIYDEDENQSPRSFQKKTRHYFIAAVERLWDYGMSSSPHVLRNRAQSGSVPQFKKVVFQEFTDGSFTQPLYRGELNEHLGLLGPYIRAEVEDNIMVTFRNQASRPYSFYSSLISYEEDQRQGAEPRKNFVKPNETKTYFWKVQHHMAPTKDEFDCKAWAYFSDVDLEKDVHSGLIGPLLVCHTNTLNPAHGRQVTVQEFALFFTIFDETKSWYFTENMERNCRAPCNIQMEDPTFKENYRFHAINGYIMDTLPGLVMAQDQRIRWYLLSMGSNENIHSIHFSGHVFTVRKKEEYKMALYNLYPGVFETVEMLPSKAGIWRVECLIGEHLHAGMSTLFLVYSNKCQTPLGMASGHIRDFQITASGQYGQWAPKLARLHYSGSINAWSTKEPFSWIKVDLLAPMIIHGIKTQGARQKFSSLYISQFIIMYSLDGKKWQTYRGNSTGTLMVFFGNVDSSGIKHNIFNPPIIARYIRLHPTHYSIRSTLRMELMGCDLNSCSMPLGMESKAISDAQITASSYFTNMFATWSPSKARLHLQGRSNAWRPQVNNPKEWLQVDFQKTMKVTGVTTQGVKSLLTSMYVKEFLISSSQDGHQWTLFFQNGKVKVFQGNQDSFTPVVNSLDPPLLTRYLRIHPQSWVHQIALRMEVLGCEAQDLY

B1: human monoclonal antibody BO2C11 (antibody, V domains shown)
VH: QVQLVQSGAEVKKPGASVKVSCKVSGYTLTELPVHWVRQAPGKGLEWVGSFDPESGESIYAREFQGSVTMTADTSTDIAYMELSSLRSDDTAVYYCAVPDPDAFDIWGQGTMVTVSS
VL: EIALTQSPGTLSLSPGERATLSCRASQSFSSSYLAWYQQKPGQAPRLLIYGASTRATGIPDRFSGSGSGTDFTLTISRLEPEDFAVYYCQKYGTSAITFGQGTRLEIK
notes: also called B02C11
The term koff denotes the first-order rate constant of dissociation. Read a high koff as fast dissociation. For the molecule B1, the off-rate (koff) is ≤ 1e-05 s⁻¹.
